Assay results reported in article PMC10387464 (Signal Transduction and Targeted Therapy, 2023).

Target: Omicron BA.1 spike trimer (SARS-CoV-2 Omicron BA.1 (B.1.1.529), N440K | G446S)
Assay: cryo-EM structure
Conditions: both partners purified

B1: MB.02 Fab (Fab, V domains shown)
VH: EVQLVQSGAEVKKPGESLKISCKGSGFSFTSYWIGWVRQMPGKGLEWMGIIYPGDSDTRYSPSFQGQVTISADKSISTAYLQWSSLKASDTAMYYCARGGYEDVFDIWGQGTMVTVSS
VL: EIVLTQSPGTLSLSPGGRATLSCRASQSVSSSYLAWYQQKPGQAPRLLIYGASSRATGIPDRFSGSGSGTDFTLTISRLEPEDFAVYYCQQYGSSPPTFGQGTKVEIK
- stoichiometry N: 3 Fabs per S trimer
